Values joined by “and” are separate entries in the source; they are usually repeats but may differ in a detail not shown here. Identical values can stand only once.
Biological target: Rabbit GH receptor, full length, stably expressed on murine FDC-P1 cells (GH-R4 cell line) (rabbit) (UniProt P19941)
Assay: cell-based or functional assay

Sequence of UniProt P19941 (P19941 19-638): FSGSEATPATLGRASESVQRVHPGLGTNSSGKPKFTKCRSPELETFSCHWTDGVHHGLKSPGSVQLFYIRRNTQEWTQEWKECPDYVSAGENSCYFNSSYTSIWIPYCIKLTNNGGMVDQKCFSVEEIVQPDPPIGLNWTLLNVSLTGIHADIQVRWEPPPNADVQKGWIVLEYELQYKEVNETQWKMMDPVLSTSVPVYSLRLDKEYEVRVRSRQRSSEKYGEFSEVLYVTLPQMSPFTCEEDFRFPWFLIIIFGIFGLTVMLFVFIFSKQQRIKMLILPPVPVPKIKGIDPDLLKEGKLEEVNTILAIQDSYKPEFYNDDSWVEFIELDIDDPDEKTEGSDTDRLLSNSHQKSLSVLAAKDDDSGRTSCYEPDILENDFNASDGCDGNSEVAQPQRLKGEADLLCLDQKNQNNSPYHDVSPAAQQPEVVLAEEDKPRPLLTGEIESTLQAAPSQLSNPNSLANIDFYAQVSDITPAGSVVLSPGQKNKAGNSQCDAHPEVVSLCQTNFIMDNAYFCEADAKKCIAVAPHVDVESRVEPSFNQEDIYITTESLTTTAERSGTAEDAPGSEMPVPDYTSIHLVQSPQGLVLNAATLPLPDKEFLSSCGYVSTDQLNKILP

| EC50, individual experiment, MTS cell proliferation assay, GH-R4 cells | Mean EC50, MTS cell proliferation assay, GH-R4 cells [ng/mL] | Mean EC50 in molar units, MTS cell proliferation assay, GH-R4 cells [nM] | Substance | other results |
| --- | --- | --- | --- | --- |
| – | 1.6 | 0.07 | PEG-T3C, monoPEGylated hGH cysteine mutein T3C (5 kDa maleimide-PEG) (from UniProt P01241 27-217) (ligand) | – |
| – | 1.6 | – | hGH cysteine mutein S144C (from UniProt P01241 27-217) (ligand) | – |

Continued, substance first:

| Substance | EC50, individual experiment, MTS cell proliferation assay, GH-R4 cells | Mean EC50, MTS cell proliferation assay, GH-R4 cells [ng/mL] | Mean EC50 in molar units, MTS cell proliferation assay, GH-R4 cells [nM] | other results |
| --- | --- | --- | --- | --- |
| PEG-S144C, monoPEGylated hGH cysteine mutein S144C (5 kDa maleimide-PEG) (from UniProt P01241 27-217) (ligand) | 40 ng/mL and 45 ng/mL | 43 | 2 | – |
| Wild-type recombinant human growth hormone (rhGH), secreted to the E. coli periplasm with the stII signal sequence (from UniProt P01241 27-217) (ligand) | 0.8 ng/mL and 1.1 ng/mL | 0.8 | – | – |
| hGH cysteine mutein T3C, disulfide-linked homodimer (from UniProt P01241 27-217) (ligand) | – | – | – | Mean EC50, MTS cell proliferation assay, GH-R4 cells (T3C dimer): 1.4 ng/mL |
| hGH cysteine mutein T148C (from UniProt P01241 27-217) (ligand) | – | – | – | EC50, individual experiment, MTS cell proliferation assay, GH-R4 cells (T148C-lotA): 0.4 ng/mL and 0.5 ng/mL; EC50, individual experiment, MTS cell proliferation assay, GH-R4 cells (T148C-lotB): 1.5 ng/mL and 1.9 ng/mL and 3.1 ng/mL; Mean EC50, MTS cell proliferation assay, GH-R4 cells (T148C-lotA): 0.5 ng/mL; Mean EC50, MTS cell proliferation assay, GH-R4 cells (T148C-lotB): 2.5 ng/mL |

Reference: patent EP2305804B1
